Earlier results, collected in article PMC9405863.

Biological target: Calmodulin (Homo sapiens) (UniProt P0DP23)
Experiment: ITC

Kd | Substance
0.8 µM | STIM1 K-rich domain (from UniProt Q13586)
0.9 µM | STIM2 K-rich domain (from UniProt Q9P246)
